# Tests used:
# [1] = target: alpha-synuclein fibrils, P37840; test: SPR, captured mAb; details: remark: other sources report otherwise
# [2] = target: monomeric alpha-synuclein, P37840; test: SPR, captured mAb; details: remark: other sources report otherwise
Binder,Kd [1],koff [1],kon [1],Kd [2],koff [2],kon [2]
"ACI-7079-2606A6-Ab2 (antibody, V domains shown) VH: QVQLQQSGPELVKPGASVKISCKASGFAFSSSWMNWVKQRPGKGLEWVGRIFPGDGDTNYDRKFKDKATLTADKSSSTAYMQLSSLTSEDSAVYFCARWTGGYDWFAYWGQGTLVTVSA VL: DIVLTQSPASLAVSLGQRATISCRASQSVSTSNYNYLHWYQQKPGQPPKLLITYASNLESGVPARFSGSGSGTDFTLNIHPVEEGDTATYYCQHSWEIPLTFGAGTKLELK",56.2 nM,0.000862 s⁻¹,15400 M⁻¹ s⁻¹,4.8 nM,0.00412 s⁻¹,860000 M⁻¹ s⁻¹
"ACI-7079-2511B3-Ab3 (antibody, V domains shown) VH: DVQLQESGPGLVKPSQSLSLTCSVTGFSITSYYYWNWIRQFPGNKLEWMAYISYDGSNNYNPSLKNRISITRDTSKNQFFLKLNSVTTEDTATYYCTRGDWDWGQGTLVTVSA VL: not shown",29.5 nM,0.000312 s⁻¹,10600 M⁻¹ s⁻¹,6.3 nM,0.000583 s⁻¹,92800 M⁻¹ s⁻¹
"ACI-7067-1102G3-Ab1 (antibody, V domains shown) VH: EVKLEESGGGLVQPGGSMKLSCAASGFTFSDAWMNWVRQSPEKGLEWVAEIRNKAHNHATYYAESVKGRFTISGDDSKSSVYLQMNNLRAEDTGIYYCTIYSYWGQGTLVTVSA VL: SIVMTQTPKFLLVSAGDRVTITCKASQSVTKDVAWYQQKPGQSPKLLIYSTSNRYSGVPDRFTGSGYGTDFTFTINTVQTEDLAVYFCQQDYRIPYTFGGGTKLEIK",30.6 nM,0.00135 s⁻¹,46000 M⁻¹ s⁻¹,8 nM,0.00103 s⁻¹,129000 M⁻¹ s⁻¹
"ACI-7088-4301H3-Ab2 (antibody, V domains shown) VH: EVQLQQSGPELVKPGASVKISCKASGYTFADYFMNWVKQSHGKSLEWIGDINPNNGGTTYNQKFKGKATLTVDKSSNTAYMELRSLTSEDSAVYYCARGRNYAMDYWGQGTSVTVSS VL: DIVMSQSPSSLAVSAGEKVTMSCKSSQSLLNSRTRKNYLAWYQQKPGQSPKLLIYSASTRESGVPDRFTGSGFGTDFTLTISSVQAEDLAVYYCKQSYDLWTFGGGTKLEIK",86.5 nM,0.000898 s⁻¹,10400 M⁻¹ s⁻¹,119 nM,0.00329 s⁻¹,27600 M⁻¹ s⁻¹
"ACI-7088-4303H6-Ab1 (antibody, V domains shown) VH: EVQLQQSGAELVRPGASVKLSCTASGFNIQDDYMHWVKQRPEQGLEWIGWIDPENGDTEYASKFQGKATLTADTSSNTAYLQLSRLTSEDTAVYYCTTAGSGVQLFDYWGQGTTLTVSA VL: DILMTQSQKFMSTSVGDRVSVTCKASQNVGTNVAWYQQKPGQSPKPLISSASSRYSGVPDRFTGSGSGTDFTLTISNVQSEDLADYFCQQYNRYPLTFGAGTKLELK",43.7 nM,0.000636 s⁻¹,14600 M⁻¹ s⁻¹,195 nM,0.0067 s⁻¹,34400 M⁻¹ s⁻¹
"ACI-7088-4303A1-Ab1 (antibody, V domains shown) VH: EVQLQQSGAELVRPGASVKLSCTASGFNIKDDYMHWVKQRPEQGLEWIGWIDPENGDSEYASKFQGKATMTADTSSNTAYLQLSSLTSEDTAVYYCKTWGTAQALFPYWGQGTLVTVSA VL: DIVMTQSQKFMSTSVGDRVSITCKASQNVGTSVGWYQQKAGQSPKLLIHSASNRYTGVPDRFTGSGSGTDFTLTINNMQSEDLADYFCQQYRSYPLTFGAGTKLELK",13.5 nM,0.000244 s⁻¹,18100 M⁻¹ s⁻¹,37.1 nM,0.0632 s⁻¹,1.7e+06 M⁻¹ s⁻¹
"ACI-7088-4305H7-Ab1 (antibody, V domains shown) VH: EVQLQQSGAELVRPGASVKLSCTASGFNIKDDYMHWVKQRPEQGLEWIGWIDPENGDTEYASKFQGKATMIADTSSNTAYLQLSSLTSEDTAVYYCKTWGTTQALFPYWGQGTLVTVSS VL: DIVMTQSQKFMSTSVGDRVSITCKASQNVGTAVGWYQQKAGQSPKLLIHSASNRYTGVPDRFTGSGSGTDFTLTINNMQSEDLADYFCQQYRSYPLTFGAGTKLELK",8.4 nM,0.000203 s⁻¹,24200 M⁻¹ s⁻¹,3.4 nM,0.0924 s⁻¹,2.73e+07 M⁻¹ s⁻¹
"ACI-7079-2506F3-Ab1 (antibody, V domains shown) VH: QVQLQQPGAELVKPGASVKLSCKASGYTFTTYWMQWVKQRPGQGLEWIGEIDPSDSYINYNQKFKGKATLTVDTSSSTAFMQLSSLTSEDSAVYYCARGMMDYWGQGTSVTVSS VL: DVLMTQTPLSLPVSLGDQASISCRSSQSIVHSNGNTYLEWYLQKPGQSPKLLIYKVSNRFSGVPDRFSGSGSGTDFTLKISRVEAEDLGVYYCFKGSHVPYTFGGGTKLEIK",8.8 nM,0.000161 s⁻¹,18300 M⁻¹ s⁻¹,2.4 nM,0.00051 s⁻¹,210000 M⁻¹ s⁻¹
"ACI-8033-1G10-Ab1 (antibody, V domains shown) VH: DVQLQESGPGLVKPSQTVFLTCTVTGISITTGNYRWSWIRQFPGNKLEWIGYIYYSGTITYNPSLTSRTTITRDTPKNQFFLEMNSLTAEDTATYYCARIYYGNAMDYWGQGTSVTVSS VL: DVVMTQTPLSLPVSLGDQASISCRSSQSLVHSNGNTYLHWYLQKPGQSPKLLIYKVSNRFSGVPDRFSGSGSGTDFTLKISRVEAEDLGVYFCSQSTHVPHTFGGGTKLEIK",3.7 nM,6.54e-05 s⁻¹,17700 M⁻¹ s⁻¹,–,–,–
"ACI-7088-4303A3-Ab1 (antibody, V domains shown) VH: QVQLQQSGAELVRPGASVTLSCKASGYTFTDYEMHWVKQTPVHGLEWIGVIDPETGGAVQNQKFKGKAILTADNSSSTAYMDLRSLTSEDSAVYNCAMGAALRLAYWGQGTLVTVSS VL: DVLMTQTPLSLPVSLGDQASISCRSSQSIVHSNGNSYLEWYLQKPGQSPKLLIYKVSNRFSGVPDRFSGSGSGTDFTLKINRVEAEDLGVYYCFQGSHVPFTFGSGTKLEIK",9.4 nM,0.000606 s⁻¹,64700 M⁻¹ s⁻¹,1 nM,0.00107 s⁻¹,1.04e+06 M⁻¹ s⁻¹
"ACI-7079-2602G4-Ab4 (antibody, V domains shown) VH: EVQLVESGGGLVQPKGSLKLSCAASGFTFKTYAMHWVRQAPGKGLEWVARIRSKGSDYATYYADSVKDRFTISRDDSQSMLYLQMNNLKTEDTAMYFCVRGGADSWFAYWGQGTLVTVST VL: QIVLTQSPAIMSASPGERITMTCTASSSVSYMHWYQQKSGTSPKRWIYDTSKLASGVPARFSGSGSGASYTLTISSMEAEDAATYYCQQWNRNPPTFGGGTQLAIK",18.9 nM,0.000234 s⁻¹,12400 M⁻¹ s⁻¹,3.9 nM,0.000867 s⁻¹,223000 M⁻¹ s⁻¹
"ACI-7079-2605B3-Ab2 (antibody, V domains shown) VH: EVQLVESGGGLVQPKGSLKLSCAASGFIFKTYAMHWVRQAPGKGLEWVARIRSKGGNYATYFADSVKDRFTISRDDSQNMLYLQVNNLKIEDTAMYFCVRGGNYSWFAYWGQGTLVTVSA VL: QIVLTQSPAIMSASPGEKVTMTCSASSSVTYMHWYQQKSGTSPKRWIYDTSQLASGVPARFSGSGSGTSHSLTISSMETEDAATYYCQQWTRNPPTFGGGTKLAIK",17.4 nM,0.000294 s⁻¹,16800 M⁻¹ s⁻¹,3.9 nM,0.00109 s⁻¹,283000 M⁻¹ s⁻¹
"ACI-7079-2507B3-Ab1 (antibody, V domains shown) VH: EVQLVESGGGLVQPKGSLKVSCAASGFTFKTYAMHWVRQAPGKGLEWVARIRSENSNFAKYYADSVKDRFTISRDDSQSMLYLQMHTLKTEDTAIYYCVRGYNGSSLDYWGQGTTLTVSS VL: QIVLTQSPAIMSAFPGERVTMTCSASSSVNYMHWYQQKSGTSPKRWIYDTSKLASGVPARFSGGGSGTSYSLTISNMEAEDAATYYCQQWRSNPPTFGGGTKLEIK",34.9 nM,0.000668 s⁻¹,19100 M⁻¹ s⁻¹,2.6 nM,0.000642 s⁻¹,245000 M⁻¹ s⁻¹
"ACI-7067-1106A8-Ab2 (antibody, V domains shown) VH: EVQLVESGGGLVQPKGSLKLSCAASGFTFNTYAMHWVRQAPGKGLEWVARIRSKGSNYATNYADSVKDRFTISRDDSQSMLYLQMNNLKTEDTAMYYCVRGHGSSYFSYWGQGTLVTVSA VL: QIVLTQSPAIMSASPGEKVTMTCSASSSVSYMHWYQQKSGTSPKRWIYDTSNLASGVPARFSGSGSGTSYSLTISSMEAEDAATYYCQQWNSHPPTFGAGTKLELK",25 nM,0.00721 s⁻¹,284000 M⁻¹ s⁻¹,23.2 nM,0.005 s⁻¹,218000 M⁻¹ s⁻¹
"ACI-7067-1107G5-Ab2 (antibody, V domains shown) VH: QVQLQQPGTELVKPGASVKLSCKASGYTFTKYWMHWVKQRPGQGLEWIGNINPNNGDTNYNEKFKSKATLTVDKSSSTAYMQLSSLTSEDSAVYYCAIAMDYWGQGTSVTVSS VL: DIQMTQSPSSLSAFLGERVSLTCRASQDIGNNLNWFQQEPDGTIKRLIYATSSLDSGVPKRFSGSRSGSEYSLTISSLESEDFVDYYCLQFGSSPLTFGAGTKLELK",16.1 nM,0.00218 s⁻¹,345000 M⁻¹ s⁻¹,7.2 nM,0.00114 s⁻¹,158000 M⁻¹ s⁻¹
"ACI-8033-5A12-Ab1 (antibody, V domains shown) VH: QVHLKQSGADLVRPGASVKLSCKASGYTFTDYYINWVKQRPGQGLEWIARIYPGSGNTYYNEKFKGRATLSAEKSSTTAYMQLSSLTSEDSAVYFCVVGYYGAWGQGTTLTVSS VL: DVVMTQTPLSLPVSLGDQASISCRSSQSLVHSNGKTHLHWYLQKPGQSPKLLIYKVSNRFSGVPDRFSGSGSGTDFTLKISRVEAEDLGVYFCSQSTHVPWTFGGGTKLEIK",0.1 nM,4.37e-06 s⁻¹,30600 M⁻¹ s⁻¹,–,–,–
"ACI-7079-2603C1-Ab3 (antibody, V domains shown) VH: QVQLQQPGADLVKPGASVKLSCKASGYTFTSYWMQWTKQRPGQGLEWIGEIDPSDSYANYNQKFKGKATLTVDKYSSTAYMQLNSLTSEDSAVYYCALYDGPSYWGQGTLVTVS VL: ENVLTQSPAIMSASPGEKVTMTCSAGSSVSYMHWFQQKSSTSPKLWIYDTSKLPSGVPGRFSGSGSGNSYSLTISSMEAEDVATYYCFQGSGYPYTFGGGTKLEIK",40.3 nM,51.7 s⁻¹,1.28e+09 M⁻¹ s⁻¹,10.9 nM,6.06 s⁻¹,5.58e+08 M⁻¹ s⁻¹
"ACI-7079-2506E2-Ab2 (antibody, V domains shown) VH: QVQLQQSGPELVRPGASVKISCKASGYAFSNSWMNWVKQRPGKGLEWIGRIFPGDGDTYYDGKFKGKVKLTTDKFSNTAYMQLRSLTSEDSAVYFCARWGGTNDEWFAHWGQGTLVTVSV VL: DIVLTQSPASLTVSLGQRATISCRASQSVSTSRNSYMHWYQQKPRQPPKLLIKYASNLESGVPARFSGSGSGADFTLNIHPVEEEDTATYYCQHSWDIPLTFGTGTKLELS",91.9 nM,0.000476 s⁻¹,5190 M⁻¹ s⁻¹,7.6 nM,0.000615 s⁻¹,80900 M⁻¹ s⁻¹
